Results reported in paper PMC11445502, “CDK phosphorylation of Sfr1 downregulates Rad51 function in late-meiotic homolog invasions” (The EMBO Journal, 2024).

Assays:
Rad51 [1] = target: Rad51 (UniProt P36601); experiment: GST pulldown from mixed bacterial lysates; conditions: reference: wild-type GST-Sfr1; sites T73,T89,S109,S116,S147,T152,S165
Rad51 [2] = target: Rad51 (UniProt P36601); experiment: focus co-localisation on nuclear spreads; conditions: reference: EGFP-Sfr1 wild type; sites T73,T89,S109,S116,S147,T152,S165
GST-Sfr1-WI = target: T1, GST-Sfr1-WI (S. pombe, UniProt Q9USV1 1-299, Lys93 to Ala | Lys94 to Ala | Arg95 to Ala | Lys157 to Ala | Arg158 to Ala | …); experiment: pull-down; GST-Sfr1 lysates (~2 mg) and Rad51 extract (75 ug) from E. coli mixed, Glutathione Sepharose 4B, 1 h at 4 °C; pulldown buffer 25 mM HEPES-KOH pH 7.5, 150 mM NaCl, 3.5 mM MgCl2, 0.5 mM DTT, 0.05 mg/ml BSA, 10% glycerol, 0.05% Igepal; western blot anti-GST and anti-Rad51; Rad51/GST ratio quantified; conditions: partners not purified
T1 construct: Sfr1, S. pombe, seven arginine and lysine residues of Site 1 and Site 2 changed to alanine; pGEX-4T-1 should put GST at the N-terminus (surmised); Partly degraded as m1; also called pGEX-4T-1 sfr1-WI (CMC98); source: E. coli BL21 DE3, in cleared lysate
T1 sequence (looked up): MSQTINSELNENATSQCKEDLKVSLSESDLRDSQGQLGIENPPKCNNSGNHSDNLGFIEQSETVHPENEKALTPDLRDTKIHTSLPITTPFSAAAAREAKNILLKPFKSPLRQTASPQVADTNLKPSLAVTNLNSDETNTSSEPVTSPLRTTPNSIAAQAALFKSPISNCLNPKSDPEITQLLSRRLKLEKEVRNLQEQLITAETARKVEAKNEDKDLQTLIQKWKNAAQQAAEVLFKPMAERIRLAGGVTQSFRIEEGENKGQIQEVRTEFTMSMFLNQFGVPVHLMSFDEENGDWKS

GST-Sfr1-7A = target: T2, GST-Sfr1-7A (S. pombe, UniProt Q9USV1 1-299, Thr73 to Ala | Thr89 to Ala | Ser109 to Ala | Ser116 to Ala | Ser147 to Ala | …); experiment: as above; conditions: partners not purified
T2 construct: Sfr1, S. pombe, all seven putative CDK sites changed to alanine; pGEX-4T-1 should put GST at the N-terminus (surmised); Partly degraded as m1; also called pGEX-4T-1 sfr1-7A (CMC102); source: E. coli BL21 DE3, in cleared lysate
T2 sequence (looked up): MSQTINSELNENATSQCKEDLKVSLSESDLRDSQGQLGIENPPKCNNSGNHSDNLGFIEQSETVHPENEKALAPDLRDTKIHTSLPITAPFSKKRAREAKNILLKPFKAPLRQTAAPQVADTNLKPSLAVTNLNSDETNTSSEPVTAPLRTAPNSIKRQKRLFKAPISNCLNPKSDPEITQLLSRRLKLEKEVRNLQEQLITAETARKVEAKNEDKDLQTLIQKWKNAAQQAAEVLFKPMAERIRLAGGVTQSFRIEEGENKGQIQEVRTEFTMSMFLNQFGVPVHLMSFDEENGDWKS

Sfr1 (from UniProt Q9USV1) GST-Sfr1-7A
percent of reference (Rad51 [1]): 81%

Sfr1 (from UniProt Q9USV1) EGFP-Sfr1-7D
other: % of Rad51 foci co-localised with EGFP-Sfr1 foci (Rad51 [2]): weaker; reference 78

Sfr1 (from UniProt Q9USV1) EGFP-Sfr1-7A
other: % of Rad51 foci co-localised with EGFP-Sfr1 foci (Rad51 [2]): same; reference 78

B1: Rad51 (untagged) (natural protein, S. pombe, UniProt P36601 1-365, looked up)
chain: MADTEVEMQVSAADTNNNENGQAQSNYEYDVNVQDEEDEAAAGPMPLQMLEGNGITASDIKKIHEAGYYTVESIAYTPKRQLLLIKGISEAKADKLLGEASKLVPMGFTTATEYHIRRSELITITTGSKQLDTLLQGGVETGSITELFGEFRTGKSQICHTLAVTCQLPIDMGGGEGKCLYIDTEGTFRPVRLLAVADRYGLNGEEVLDNVAYARAYNADHQLELLQQAANMMSESRFSLLVVDSCTALYRTDFSGRGELSARQMHLARFMRTLQRLADEFGIAVVITNQVVAQVDGISFNPDPKKPIGGNILAHSSTTRLSLRKGRGEQRICKIYDSPCLPESEAIFAINSDGVGDPKEIIAPV
notes: Rad51 recombinase, S. pombe, untagged, in pET-11d; Plasmid ordered from GeneUniversal or GeneCust; also called pET-11d rad51 (CMC99); recombinase Rad51; source: E. coli BL21 DE3, in cleared lysate
efficiency of binding compared to control GST-Sfr1 (Rad51/GST ratio) (GST-Sfr1-WI): 17% | efficiency of binding compared to control GST-Sfr1 (Rad51/GST ratio) (GST-Sfr1-7A): 81%
